Laboratory results from patent publication US20220119490A1 (Genentech, published 2022).

Tests used:
Experiment in all cases: cell surface interaction assay: query ECD tetramerised with fluorescent streptavidin on transfected cells, immunofluorescence
[1] = target: T1, PTPRO expressed on cells (human, UniProt Q16827 30-1216)
T1 construct: whole, on cells
T1 sequence (looked up): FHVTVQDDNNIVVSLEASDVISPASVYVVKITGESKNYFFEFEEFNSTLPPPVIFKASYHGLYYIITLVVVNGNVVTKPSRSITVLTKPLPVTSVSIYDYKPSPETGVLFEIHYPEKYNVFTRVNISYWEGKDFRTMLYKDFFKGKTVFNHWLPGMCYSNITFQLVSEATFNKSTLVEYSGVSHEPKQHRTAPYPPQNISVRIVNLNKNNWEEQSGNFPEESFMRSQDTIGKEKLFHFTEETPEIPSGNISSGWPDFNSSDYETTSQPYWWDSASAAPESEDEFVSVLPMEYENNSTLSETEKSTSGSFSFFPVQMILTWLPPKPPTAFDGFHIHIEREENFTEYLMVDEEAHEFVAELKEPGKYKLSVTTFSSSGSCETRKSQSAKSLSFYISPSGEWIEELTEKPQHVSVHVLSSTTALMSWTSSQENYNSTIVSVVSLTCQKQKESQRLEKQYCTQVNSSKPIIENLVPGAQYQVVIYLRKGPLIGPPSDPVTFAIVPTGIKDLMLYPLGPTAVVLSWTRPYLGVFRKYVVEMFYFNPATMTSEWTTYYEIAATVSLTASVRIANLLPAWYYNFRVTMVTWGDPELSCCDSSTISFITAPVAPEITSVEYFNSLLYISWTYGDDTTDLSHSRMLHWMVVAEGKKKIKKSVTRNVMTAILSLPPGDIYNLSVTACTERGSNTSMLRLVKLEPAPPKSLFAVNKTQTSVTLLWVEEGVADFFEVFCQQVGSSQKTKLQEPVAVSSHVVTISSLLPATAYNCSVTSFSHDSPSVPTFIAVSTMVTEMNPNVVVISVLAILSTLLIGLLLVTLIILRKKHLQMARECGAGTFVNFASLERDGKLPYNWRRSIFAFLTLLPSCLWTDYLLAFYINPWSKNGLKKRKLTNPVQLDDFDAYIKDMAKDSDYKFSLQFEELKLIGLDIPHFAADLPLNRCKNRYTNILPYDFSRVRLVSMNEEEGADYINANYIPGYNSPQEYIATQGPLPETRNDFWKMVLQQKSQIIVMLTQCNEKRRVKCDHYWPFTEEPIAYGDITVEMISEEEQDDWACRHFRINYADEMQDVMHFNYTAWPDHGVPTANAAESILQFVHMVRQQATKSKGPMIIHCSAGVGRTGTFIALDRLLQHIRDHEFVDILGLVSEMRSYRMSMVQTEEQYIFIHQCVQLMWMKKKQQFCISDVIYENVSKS
Description: (§1) FIG. 3H is a schematic showing the design of the cell surface interaction assay.
(§2) Experiments shown are representative of two independent assays. […] Scale bar=50 μm.

[2] = target: T2, PTPRZ1 expressed on cells (human, UniProt P23471 25-2315)
T2 construct: whole, on cells
Description: as §1, §2

[3] = target: T3, PTPRM expressed on cells (human, UniProt P28827 21-1452)
T3 construct: whole, on cells
Description: as §1, §2

[4] = target: T4, PTPRF expressed on cells (human, UniProt P10586 30-1907)
T4 construct: whole, on cells; also called receptor-type tyrosine-protein phosphatase F

[5] = target: T5, PTPRS expressed on cells (human, UniProt Q13332 30-1948)
T5 construct: whole, on cells; also called receptor-type tyrosine-protein phosphatase S

T3 sequence (P28827 21-1452): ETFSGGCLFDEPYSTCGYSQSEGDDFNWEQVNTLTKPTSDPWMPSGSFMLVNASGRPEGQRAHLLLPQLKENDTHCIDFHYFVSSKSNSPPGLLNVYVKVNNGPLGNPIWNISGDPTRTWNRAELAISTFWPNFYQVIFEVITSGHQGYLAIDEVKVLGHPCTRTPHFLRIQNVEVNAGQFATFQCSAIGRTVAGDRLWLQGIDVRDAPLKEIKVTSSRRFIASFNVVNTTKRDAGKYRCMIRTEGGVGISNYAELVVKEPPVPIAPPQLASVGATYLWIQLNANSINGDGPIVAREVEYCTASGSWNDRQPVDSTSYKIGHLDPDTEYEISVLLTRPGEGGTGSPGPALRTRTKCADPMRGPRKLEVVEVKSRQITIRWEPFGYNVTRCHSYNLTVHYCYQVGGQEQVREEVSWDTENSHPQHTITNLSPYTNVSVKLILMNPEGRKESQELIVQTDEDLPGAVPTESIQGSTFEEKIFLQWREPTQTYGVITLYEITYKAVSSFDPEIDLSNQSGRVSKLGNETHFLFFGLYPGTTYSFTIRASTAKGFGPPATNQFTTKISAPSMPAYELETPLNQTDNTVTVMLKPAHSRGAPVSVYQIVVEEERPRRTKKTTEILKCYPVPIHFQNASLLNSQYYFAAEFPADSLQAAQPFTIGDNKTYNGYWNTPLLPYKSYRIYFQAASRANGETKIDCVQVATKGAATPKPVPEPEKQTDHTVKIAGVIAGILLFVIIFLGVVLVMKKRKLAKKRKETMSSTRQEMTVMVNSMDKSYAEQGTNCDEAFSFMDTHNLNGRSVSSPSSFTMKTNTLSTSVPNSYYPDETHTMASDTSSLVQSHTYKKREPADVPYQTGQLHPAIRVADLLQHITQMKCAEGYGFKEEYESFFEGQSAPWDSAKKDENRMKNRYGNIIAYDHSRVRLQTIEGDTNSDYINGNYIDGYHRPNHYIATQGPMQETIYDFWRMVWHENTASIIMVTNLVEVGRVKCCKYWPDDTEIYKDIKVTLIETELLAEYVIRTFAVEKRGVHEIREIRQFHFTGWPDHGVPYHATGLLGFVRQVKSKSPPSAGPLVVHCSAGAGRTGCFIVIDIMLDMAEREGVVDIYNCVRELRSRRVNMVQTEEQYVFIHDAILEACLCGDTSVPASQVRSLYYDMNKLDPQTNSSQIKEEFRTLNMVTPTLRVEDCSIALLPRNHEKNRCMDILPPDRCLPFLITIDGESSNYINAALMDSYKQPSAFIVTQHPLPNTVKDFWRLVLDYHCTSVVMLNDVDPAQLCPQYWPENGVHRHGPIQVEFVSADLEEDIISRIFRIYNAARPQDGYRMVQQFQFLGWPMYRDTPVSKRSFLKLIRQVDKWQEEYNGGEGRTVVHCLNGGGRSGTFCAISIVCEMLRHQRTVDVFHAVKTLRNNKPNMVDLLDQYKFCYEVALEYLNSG
T2 sequence (P23471 25-2315): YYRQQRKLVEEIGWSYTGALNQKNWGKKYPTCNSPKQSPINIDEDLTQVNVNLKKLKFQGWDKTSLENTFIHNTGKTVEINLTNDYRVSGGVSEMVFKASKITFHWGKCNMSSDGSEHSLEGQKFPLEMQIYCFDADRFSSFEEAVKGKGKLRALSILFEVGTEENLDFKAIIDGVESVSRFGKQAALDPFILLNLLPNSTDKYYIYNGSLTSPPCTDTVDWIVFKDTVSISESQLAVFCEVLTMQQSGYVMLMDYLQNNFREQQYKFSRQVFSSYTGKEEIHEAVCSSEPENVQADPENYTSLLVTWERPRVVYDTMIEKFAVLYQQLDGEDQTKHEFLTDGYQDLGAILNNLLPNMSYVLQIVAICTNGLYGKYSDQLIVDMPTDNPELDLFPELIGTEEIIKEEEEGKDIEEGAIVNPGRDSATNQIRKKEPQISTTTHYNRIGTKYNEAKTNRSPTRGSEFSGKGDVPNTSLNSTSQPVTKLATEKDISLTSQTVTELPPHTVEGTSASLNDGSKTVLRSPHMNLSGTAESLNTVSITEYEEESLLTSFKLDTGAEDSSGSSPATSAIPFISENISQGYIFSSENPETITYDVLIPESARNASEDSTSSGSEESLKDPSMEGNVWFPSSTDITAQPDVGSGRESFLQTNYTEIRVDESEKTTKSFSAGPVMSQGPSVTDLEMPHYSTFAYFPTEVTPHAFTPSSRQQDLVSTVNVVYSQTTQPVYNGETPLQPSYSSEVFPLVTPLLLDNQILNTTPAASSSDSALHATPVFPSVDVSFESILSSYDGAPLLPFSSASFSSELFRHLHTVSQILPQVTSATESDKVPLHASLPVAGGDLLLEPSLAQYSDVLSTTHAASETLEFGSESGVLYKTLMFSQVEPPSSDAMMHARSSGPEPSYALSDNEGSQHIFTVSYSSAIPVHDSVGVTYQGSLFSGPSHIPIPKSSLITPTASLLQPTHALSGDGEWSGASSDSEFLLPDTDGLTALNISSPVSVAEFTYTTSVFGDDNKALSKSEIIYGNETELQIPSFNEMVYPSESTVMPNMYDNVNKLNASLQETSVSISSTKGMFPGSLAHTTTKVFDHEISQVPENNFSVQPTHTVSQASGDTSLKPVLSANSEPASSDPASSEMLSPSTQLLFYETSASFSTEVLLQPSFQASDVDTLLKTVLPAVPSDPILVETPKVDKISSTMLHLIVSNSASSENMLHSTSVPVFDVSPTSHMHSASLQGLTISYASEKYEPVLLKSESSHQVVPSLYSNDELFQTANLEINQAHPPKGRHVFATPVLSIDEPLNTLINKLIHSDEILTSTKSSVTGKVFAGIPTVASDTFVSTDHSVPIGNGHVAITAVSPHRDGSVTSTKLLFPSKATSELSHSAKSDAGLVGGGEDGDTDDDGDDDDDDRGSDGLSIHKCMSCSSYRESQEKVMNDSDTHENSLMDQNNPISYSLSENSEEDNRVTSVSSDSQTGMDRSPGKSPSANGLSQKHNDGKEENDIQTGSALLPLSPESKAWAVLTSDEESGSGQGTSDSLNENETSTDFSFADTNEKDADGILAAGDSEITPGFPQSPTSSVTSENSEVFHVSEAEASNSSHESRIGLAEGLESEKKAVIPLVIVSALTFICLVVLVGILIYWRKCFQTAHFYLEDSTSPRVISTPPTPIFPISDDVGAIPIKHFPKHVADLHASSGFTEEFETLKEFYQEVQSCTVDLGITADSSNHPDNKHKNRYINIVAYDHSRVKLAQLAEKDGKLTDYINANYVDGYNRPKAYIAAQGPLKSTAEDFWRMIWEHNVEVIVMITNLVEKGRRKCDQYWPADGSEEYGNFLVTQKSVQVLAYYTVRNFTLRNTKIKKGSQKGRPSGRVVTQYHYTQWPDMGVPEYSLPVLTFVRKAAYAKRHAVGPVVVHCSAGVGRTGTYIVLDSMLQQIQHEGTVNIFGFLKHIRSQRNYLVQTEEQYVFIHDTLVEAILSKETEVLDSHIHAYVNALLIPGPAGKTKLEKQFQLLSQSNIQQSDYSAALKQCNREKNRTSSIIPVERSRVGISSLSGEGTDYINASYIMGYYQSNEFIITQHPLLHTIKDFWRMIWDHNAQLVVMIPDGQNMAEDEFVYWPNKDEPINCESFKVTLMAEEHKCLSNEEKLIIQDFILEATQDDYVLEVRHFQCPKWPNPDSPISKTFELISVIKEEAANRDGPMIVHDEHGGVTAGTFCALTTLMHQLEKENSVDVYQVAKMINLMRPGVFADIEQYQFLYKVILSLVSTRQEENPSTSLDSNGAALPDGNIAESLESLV

Row | Binder | binding result [1] | binding result [2] | binding result [3] | binding result [4] | binding result [5]
1 | LRFN5 extracellular domain (receptor, human, UniProt Q96NI6 18-529, looked up, extracellular domain; Streptavidin tetramer in cell assay; ECD-Fc prey in the variant screen; also called LFRN5) QICPKRCVCQILSPNLATLCAKKGLLFVPPNIDRRTVELRLADNFVTNIKRKDFANMTSLVDLTLSRNTISFITPHAFADLRNLRALHLNSNRLTKITNDMFSGLSNLHHLILNNNQLTLISSTAFDDVFALEELDLSYNNLETIPWDAVEKMVSLHTLSLDHNMIDNIPKGTFSHLHKMTRLDVTSNKLQKLPPDPLFQRAQVLATSGIISPSTFALSFGGNPLHCNCELLWLRRLSREDDLETCASPPLLTGRYFWSIPEEEFLCEPPLITRHTHEMRVLEGQRATLRCKARGDPEPAIHWISPEGKLISNATRSLVYDNGTLDILITTVKDTGAFTCIASNPAGEATQIVDLHIIKLPHLLNSTNHIHEPDPGSSDISTSTKSGSNTSSSNGDTKLSQDKIVVAEATSSTALLKFNFQRNIPGIRMFQIQYNGTYDDTLVYRMIPPTSKTFLVNNLAAGTMYDLCVLAIYDDGITSLTATRVVGCIQFTTEQDYVRCHFMQSQFLGGTM | no binding | no binding | no binding | – | –
2 | CNTN1 extracellular domain (receptor, human, UniProt Q12860 21-993, looked up, extracellular domain; Streptavidin tetramer in cell assays; ECD-Fc in SPR; also called contactin 1) EFTWYRRYGHGVSEEDKGFGPIFEEQPINTIYPEESLEGKVSLNCRARASPFPVYKWRMNNGDVDLTSDRYSMVGGNLVINNPDKQKDAGIYYCLASNNYGMVRSTEATLSFGYLDPFPPEERPEVRVKEGKGMVLLCDPPYHFPDDLSYRWLLNEFPVFITMDKRRFVSQTNGNLYIANVEASDKGNYSCFVSSPSITKSVFSKFIPLIPIPERTTKPYPADIVVQFKDVYALMGQNVTLECFALGNPVPDIRWRKVLEPMPSTAEISTSGAVLKIFNIQLEDEGIYECEAENIRGKDKHQARIYVQAFPEWVEHINDTEVDIGSDLYWPCVATGKPIPTIRWLKNGYAYHKGELRLYDVTFENAGMYQCIAENTYGAIYANAELKILALAPTFEMNPMKKKILAAKGGRVIIECKPKAAPKPKFSWSKGTEWLVNSSRILIWEDGSLEINNITRNDGGIYTCFAENNRGKANSTGTLVITDPTRIILAPINADITVGENATMQCAASFDPALDLTFVWSFNGYVIDFNKENIHYQRNFMLDSNGELLIRNAQLKHAGRYTCTAQTIVDNSSASADLVVRGPPGPPGGLRIEDIRATSVALTWSRGSDNHSPISKYTIQTKTILSDDWKDAKTDPPIIEGNMEAARAVDLIPWMEYEFRVVATNTLGRGEPSIPSNRIKTDGAAPNVAPSDVGGGGGRNRELTITWAPLSREYHYGNNFGYIVAFKPFDGEEWKKVTVTNPDTGRYVHKDETMSPSTAFQVKVKAFNNKGDGPYSLVAVINSAQDAPSEAPTEVGVKVLSSSEISVHWEHVLEKIVESYQIRYWAAHDKEEAANRVQVTSQEYSARLENLLPDTQYFIEVGACNSAGCGPPSDMIEAFTKKAPPSQPPRIISSVRSGSRYIITWDHVVALSNESTVTGYKVLYRPDGQHDGKLYSTHKHSIEVPIPRDGEYVVEVRAHSDGGDGVVSQVKIS | – | – | – | no binding | no binding
